Results from patent publication US20040265915A1, “Method to identify regulators of cellular activation using Bcl10” (priority 2003, published 2004).

Tested on: Bcl10-YFP POLKADOTS formation
Assay: Bcl10-YFP POLKADOTS formation in antigen-stimulated D10 T cells, fluorescence microscopy
Assay type: cell-based, murine
Conditions: D10 T cells with conalbumin-loaded CH12 B cells (100 μg/ml), fixed after 20 min, >200 T cells counted, FIG. 4
Description: D10-IL2 (henceforth referred to as D10) is an IL-2 dependent subclone of the CD4^+ T cell clone D10 (16), maintained as described (17). Primary T cell blasts were prepared by stimulation of spleen and lymph node cells with 100 μg/ml plate-bound anti-TCRP for 48 hr, with IL-2 added for the final 24 hr of stimulation. CH12H-2^k B cells and CHb H-2^b B cells (18) were maintained as described previously (17).
Murine PKCθ was fused to a C-terminal linker (GRVELGR; SEQ ID NO:7) followed by GFP or CFP (19), modified by mutations that improve folding at 37° C. (20). Two I.M.A.G.E. expressed sequence tag (EST) clones encoding murine Bcl10 were purchased (2123397 and 3026026; ResGen). Clone 3026026 was used for PCR amplification of Bc 10, adding the C-terminal linker GR, which was then fused to the previously described modified YFP gene (17). […]
The inventors next examined whether formation of Bcl10 POLKADOTS is PKC-dependent (FIG. 4 and FIG. 5). […] Cells were fixed after 20 minutes and examined by fluorescence microscopy. For each group, >200 T cells were counted, and percentages with and without POLKADOTS were determined.
CH12 B cells that had been pre-incubated with no antigen or with 250 μg/ml conalbumin protein were then added. Cells were fixed after 30 min and examined by fluorescence microscopy. […]

B1: conalbumin: conalbumin protein, specific antigen loaded on CH12 B cells to stimulate D10 T cells (protein, UniProt P02789 20-705, looked up)
Ovotransferrin: APPKSVIRWCTISSPEEKKCNNLRDLTQQERISLTCVQKATYLDCIKAIANNEADAISLDGGQAFEAGLAPYKLKPIAAEVYEHTEGSTTSYYAVAVVKKGTEFTVNDLQGKTSCHTGLGRSAGWNIPIGTLLHRGAIEWEGIESGSVEQAVAKFFSASCVPGATIEQKLCRQCKGDPKTKCARNAPYSGYSGAFHCLKDGKGDVAFVKHTTVNENAPDQKDEYELLCLDGSRQPVDNYKTCNWARVAAHAVVARDDNKVEDIWSFLSKAQSDFGVDTKSDFHLFGPPGKKDPVLKDLLFKDSAIMLKRVPSLMDSQLYLGFEYYSAIQSMRKDQLTPSPRENRIQWCAVGKDEKSKCDRWSVVSNGDVECTVVDETKDCIIKIMKGEADAVALDGGLVYTAGVCGLVPVMAERYDDESQCSKTDERPASYFAVAVARKDSNVNWNNLKGKKSCHTAVGRTAGWVIPMGLIHNRTGTCNFDEYFSEGCAPGSPPNSRLCQLCQGSGGIPPEKCVASSHEKYFGYTGALRCLVEKGDVAFIQHSTVEENTGGKNKADWAKNLQMDDFELLCTDGRRANVMDYRECNLAEVPTHAVVVRPEKANKIRDLLERQEKRFGVNGSEKSKFMMFESQNKDLLFKDLTKCLFKVREGTTYKEFLGDKFYTVISSLKTCNPSDILQMCSFLEGK
In the case of B1, the “cells with Bcl10-YFP POLKADOTS” value is reported as “over 80%”.
